These sequences were tested on Escherichia coli TOP10 (assay: shrunken log2 fold change of peptide-encoding DNA abundance (4.5 h post-induction vs induction); higher = less antimicrobial activity (less host growth inhibition)). Settings: time post-induction: 4.5 h; library: site-saturation at positions 5, 18, 19, 20.
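Also: peptides expressed intracellularly from a pBAD plasmid library in pooled LB shake-flask culture, induced with 0.3% L-arabinose, DNA abundance read by NGS, three biological replicates, DESeq2 with apeglm shrinkage.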

| Sequence | shrunken log2 fold change |
| --- | --- |
| RRIRTRPPRLPRPRPRPFDVPRP | -0.243 |
| RRIRHRPPRLPRPRPRPRAIPRP | 0.0852 |
| RRIRERPPRLPRPRPRPEERPRP | 0.0375 |
| RRIRVRPPRLPRPRPRPWEAPRP | 0.268 |
| RRIRWRPPRLPRPRPRPHRNPRP | -0.255 |
| RRIRMRPPRLPRPRPRPAQCPRP | 0.0203 |
| RRIRNRPPRLPRPRPRPCWNPRP | -0.429 |
| RRIRKRPPRLPRPRPRPDHPPRP | 0.0127 |
| RRIRARPPRLPRPRPRPQSPPRP | -0.0671 |
| RRIRERPPRLPRPRPRPTACPRP | -0.134 |
| RRIRFRPPRLPRPRPRPCMEPRP | -0.105 |
| RRIRIRPPRLPRPRPRPSTPPRP | -0.373 |
| RRIRTRPPRLPRPRPRPAELPRP | 0.112 |
| RRIRGRPPRLPRPRPRPRAKPRP | 1.22 |
| RRIRHRPPRLPRPRPRPSYYPRP | -1.56 |
| RRIRVRPPRLPRPRPRPDCMPRP | 0.116 |
| RRIRFRPPRLPRPRPRPNIGPRP | -0.0107 |
| RRIRLRPPRLPRPRPRPVDQPRP | 0.194 |
| RRIRSRPPRLPRPRPRPSKAPRP | -0.0678 |
| RRIRYRPPRLPRPRPRPNQCPRP | -0.352 |
| RRIRRRPPRLPRPRPRPLSYPRP | -0.0226 |
| RRIRKRPPRLPRPRPRPLDEPRP | 0.0161 |
| RRIRWRPPRLPRPRPRPFCRPRP | 0.0689 |
| RRIRPRPPRLPRPRPRPSNYPRP | -0.733 |
| RRIRLRPPRLPRPRPRPKQRPRP | 0.225 |

| Sequence | shrunken log2 fold change |
| --- | --- |
| RRIRCRPPRLPRPRPRPSDPPRP | -0.317 |
| RRIRPRPPRLPRPRPRPFNRPRP | -0.436 |
| RRIRERPPRLPRPRPRPYRRPRP | -0.0227 |
| RRIRKRPPRLPRPRPRPSPDPRP | 0.344 |
| RRIRWRPPRLPRPRPRPNKLPRP | -0.277 |
| RRIRHRPPRLPRPRPRPCTTPRP | -1.7 |
| RRIRARPPRLPRPRPRPFHKPRP | -0.148 |
| RRIRSRPPRLPRPRPRPWCGPRP | 0.0715 |
| RRIRKRPPRLPRPRPRPSCFPRP | 0.109 |
| RRIRIRPPRLPRPRPRPNDIPRP | -1.11 |
| RRIRTRPPRLPRPRPRPAMIPRP | -0.0108 |
| RRIRQRPPRLPRPRPRPHCQPRP | -0.39 |
| RRIRERPPRLPRPRPRPGRKPRP | -0.12 |
| RRIRCRPPRLPRPRPRPYESPRP | 0.0203 |
| RRIRVRPPRLPRPRPRPGMLPRP | -0.333 |
| RRIRWRPPRLPRPRPRPAVRPRP | -0.0873 |
| RRIRKRPPRLPRPRPRPTKMPRP | 0.229 |
| RRIRPRPPRLPRPRPRPLFPPRP | -0.0198 |
| RRIRKRPPRLPRPRPRPQPIPRP | 0.424 |
| RRIRERPPRLPRPRPRPRPTPRP | 0.35 |
| RRIRVRPPRLPRPRPRPLVFPRP | -0.00523 |
| RRIRDRPPRLPRPRPRPPFGPRP | 0.225 |
| RRIRLRPPRLPRPRPRPKQAPRP | 0.152 |
| RRIRRRPPRLPRPRPRPTRAPRP | 0.738 |
| RRIRGRPPRLPRPRPRPLICPRP | 0.147 |

| Sequence | shrunken log2 fold change |
| --- | --- |
| RRIRKRPPRLPRPRPRPKAFPRP | 0.0156 |
| RRIRGRPPRLPRPRPRPTDPPRP | 0.687 |
| RRIRYRPPRLPRPRPRPGPEPRP | 0.0444 |
| RRIRPRPPRLPRPRPRPMWRPRP | -0.0622 |
| RRIRTRPPRLPRPRPRPRWNPRP | 0.969 |
| RRIRGRPPRLPRPRPRPWKFPRP | -0.211 |
| RRIRTRPPRLPRPRPRPAFLPRP | 0.228 |
| RRIRMRPPRLPRPRPRPPMPPRP | 0.703 |
| RRIRGRPPRLPRPRPRPVFAPRP | 0.696 |
| RRIRKRPPRLPRPRPRPTSRPRP | 0.159 |
| RRIRRRPPRLPRPRPRPKAQPRP | -0.00801 |
| RRIRYRPPRLPRPRPRPWNIPRP | -0.01 |
| RRIRMRPPRLPRPRPRPTIHPRP | -0.134 |
| RRIRARPPRLPRPRPRPAWEPRP | 0.925 |
| RRIRRRPPRLPRPRPRPHPNPRP | 0.246 |
| RRIRKRPPRLPRPRPRPVRTPRP | 0.583 |
| RRIRKRPPRLPRPRPRPKYMPRP | -0.0337 |
| RRIRHRPPRLPRPRPRPEVGPRP | 0.0518 |
| RRIRLRPPRLPRPRPRPMGSPRP | -0.000911 |
| RRIRERPPRLPRPRPRPLNCPRP | -1.25 |
| RRIRCRPPRLPRPRPRPHVHPRP | -0.245 |
| RRIRWRPPRLPRPRPRPGCRPRP | 0.417 |
| RRIRWRPPRLPRPRPRPGTHPRP | 0.158 |
| RRIRARPPRLPRPRPRPSETPRP | 0.176 |
| RRIRDRPPRLPRPRPRPKTNPRP | -0.0796 |

| Sequence | shrunken log2 fold change |
| --- | --- |
| RRIRMRPPRLPRPRPRPRYDPRP | 0.185 |
| RRIRGRPPRLPRPRPRPTEMPRP | 0.814 |
| RRIRKRPPRLPRPRPRPDSSPRP | 0.0149 |
| RRIRTRPPRLPRPRPRPAKEPRP | -0.0337 |
| RRIRQRPPRLPRPRPRPSAKPRP | 0.104 |
| RRIRSRPPRLPRPRPRPGDPPRP | 0.353 |
| RRIRFRPPRLPRPRPRPTTIPRP | -0.548 |
| RRIRCRPPRLPRPRPRPVPAPRP | 0.457 |
| RRIRKRPPRLPRPRPRPVKYPRP | 0.221 |
| RRIRNRPPRLPRPRPRPGKYPRP | -0.117 |
| RRIRLRPPRLPRPRPRPCSWPRP | -0.0168 |
| RRIRKRPPRLPRPRPRPCQCPRP | -0.0903 |
| RRIRIRPPRLPRPRPRPDQMPRP | -0.393 |
| RRIRFRPPRLPRPRPRPVICPRP | 0.0508 |
| RRIRGRPPRLPRPRPRPMRAPRP | 1.74 |
| RRIRGRPPRLPRPRPRPTMKPRP | 0.757 |
| RRIRFRPPRLPRPRPRPRELPRP | 0.263 |
| RRIRMRPPRLPRPRPRPKELPRP | 0.642 |
| RRIRTRPPRLPRPRPRPSGGPRP | 0.863 |
| RRIRQRPPRLPRPRPRPMCVPRP | -0.308 |
| RRIRLRPPRLPRPRPRPSRKPRP | -0.177 |
| RRIRPRPPRLPRPRPRPKWVPRP | 0.111 |
| RRIRYRPPRLPRPRPRPTLHPRP | -0.749 |
| RRIRHRPPRLPRPRPRPTQYPRP | 0.124 |
| RRIRKRPPRLPRPRPRPFLDPRP | 0.0893 |

| Sequence | shrunken log2 fold change |
| --- | --- |
| RRIRNRPPRLPRPRPRPTVWPRP | 0.563 |
| RRIRCRPPRLPRPRPRPRHKPRP | -0.265 |
| RRIRHRPPRLPRPRPRPATIPRP | -0.281 |
| RRIRLRPPRLPRPRPRPDKKPRP | -0.0455 |
| RRIRCRPPRLPRPRPRPRSQPRP | 0.0629 |
| RRIRKRPPRLPRPRPRPQCSPRP | 0.136 |
| RRIRCRPPRLPRPRPRPCTGPRP | -0.307 |
| RRIRSRPPRLPRPRPRPPNLPRP | -0.148 |
| RRIRTRPPRLPRPRPRPEIYPRP | -0.329 |
| RRIRGRPPRLPRPRPRPHVWPRP | 0.201 |
| RRIRDRPPRLPRPRPRPVAFPRP | 0.589 |
| RRIRKRPPRLPRPRPRPMCTPRP | -0.0805 |
| RRIRFRPPRLPRPRPRPVFWPRP | 0.423 |
| RRIRYRPPRLPRPRPRPAQYPRP | -0.562 |
| RRIRLRPPRLPRPRPRPNTDPRP | -0.371 |
| RRIRPRPPRLPRPRPRPCVHPRP | -0.434 |
| RRIRLRPPRLPRPRPRPPPQPRP | 1.12 |
| RRIRMRPPRLPRPRPRPEIIPRP | 2.84 |
| RRIRDRPPRLPRPRPRPQMEPRP | 0.00785 |
| RRIRYRPPRLPRPRPRPLPEPRP | -0.323 |
| RRIRVRPPRLPRPRPRPTGVPRP | 0.0149 |
| RRIRYRPPRLPRPRPRPGLVPRP | -0.217 |
| RRIRIRPPRLPRPRPRPMYNPRP | -0.429 |
| RRIRDRPPRLPRPRPRPWKIPRP | 0.0112 |
| RRIRLRPPRLPRPRPRPYFHPRP | -1.08 |

| Sequence | shrunken log2 fold change |
| --- | --- |
| RRIRQRPPRLPRPRPRPNNIPRP | -0.732 |
| RRIRMRPPRLPRPRPRPHCWPRP | -0.207 |
| RRIRGRPPRLPRPRPRPCRLPRP | 0.123 |
| RRIRNRPPRLPRPRPRPTKMPRP | 0.00053 |
| RRIRERPPRLPRPRPRPGHHPRP | -0.261 |
| RRIRHRPPRLPRPRPRPEPIPRP | 0.021 |
| RRIRDRPPRLPRPRPRPWEDPRP | 0.0111 |
| RRIRQRPPRLPRPRPRPAQHPRP | 0.189 |
| RRIRSRPPRLPRPRPRPDGWPRP | 0.278 |
| RRIRTRPPRLPRPRPRPYAPPRP | -1.07 |
| RRIRCRPPRLPRPRPRPHAVPRP | -0.559 |
| RRIRTRPPRLPRPRPRPRIPPRP | 0.00212 |
| RRIRYRPPRLPRPRPRPMVDPRP | -0.248 |
| RRIRARPPRLPRPRPRPCWAPRP | 0.119 |
| RRIRWRPPRLPRPRPRPGVFPRP | 0.224 |
| RRIRVRPPRLPRPRPRPMLFPRP | -0.329 |
| RRIRKRPPRLPRPRPRPTMVPRP | 0.27 |
| RRIRGRPPRLPRPRPRPYCPPRP | -0.333 |
| RRIRVRPPRLPRPRPRPCLQPRP | -0.421 |
| RRIRFRPPRLPRPRPRPECTPRP | 0.0551 |
| RRIRQRPPRLPRPRPRPKVDPRP | 0.129 |
| RRIRLRPPRLPRPRPRPLSRPRP | -0.247 |
| RRIRQRPPRLPRPRPRPLCVPRP | -0.183 |
| RRIRQRPPRLPRPRPRPLCFPRP | -0.302 |
| RRIRGRPPRLPRPRPRPMALPRP | -0.0079 |
